Data taken from the DeepSol protein solubility set.

Assay: soluble on expression in E. coli; label from the status in PepcDB or PDB records

Row | Sequence | soluble on expression in E. coli
1 | MLGYAFPSILGNLMSKIYQMDAVDWLKTLENCSVDLFITDPPYESLEKYRQIGTTTRLKESKSSSNQWFSVFPNTRFEELFREVYRVLKKGSHFYLFCDQETMFLAKPIAESVGFKFWKPIVWDKCAIGMGYHYRARYEFILFFEKGKRKLNDLSVPDVLEYKRVWKGYPTEKPVELLEVLIRQSSSENEIVADSFFGSGSTLIAANNLSRKYIGCDISSSAHEYFKNRA | not soluble
2 | MLHEIPKEEILEKLKNIGAKKVLIQSPEGLRREAEELAEFLEKNEIEVILHGEINYGACDPADHEARLLGCDALIHLGHSFMMLSLEVPTIFVPAFAKVNVVEALKKNLHEIKKLGKKIIVTTTAQHIHQLERAIEYLKSQGFEPVVGRGDNRVSWPSQVLGCNFSVAKVEGDGILFIGSGTFHPLGLALATGKRVLAVNPYSGDCQWINELAERFIRKRWAQIAKAMDAKRFGVVISTKRGQLRLNEAKRIIKLLKDHGREAKLIAMNDISYSKLEGFSFDAYVIVACPRVPIDDYENWRKPVLTPREVEILLGLREEYIFDEIPGGVREKDEPLGISLHSTRLEHHHHHH | not soluble
3 | MLHRIANGIIEEAAENGCTIIAFEELSGTRDRLPEASWGHKWAFERLYEYVKYKSELHGIDVAVVDPENTSRRCSHCGFTHPDNRDSEAFVCLKCGYENHADYNAAKNIGLRYLRRNQTGDGGGAPVGVRLNRGTLNANGEYETPAGDSGQSGSPRESPTLNEARSSDRAKLEHHHHHH | not soluble
4 | MLILRKDSKFDRKSIEELKELAEVLYNPVKTIVQIRKADPKYQIGSGLVERIAENIKEENIEIVIVGNILTPSQKYNLAKKFKVEVIDKIELVLRIFYKHARTKEAQLQVRLAELQYELPRAREKVRLAKMGEQPGFGGYGDYEVEKYYQKVKREIATIKRKLEKLREHRRVARKGRAKFDTVGLIGYTNAGKTSLLNALTGENKESKNQVFTTLTTTTRAIKGIKRKILVTDTVGFIDDLPPFMIEAFLSTIEESADSDLILIVVDASDDIEEIKRKLKVNHEILSKINCKAPIITVFNKVDKITKEKKRKILEELDRYIVNPIFVSAKYDINMDLLKEMIIEHLNLSIGTIETDNPRLISYLYENTEIIEDILEDNKHIITFRAKERDVNRILKLHKSAVLEHHHHHH | not soluble
5 | MLINARISVRSYPKYQRFSFFYALLFKRIDLILAQSKEDKKRLLNLGAKKVVDFLNIKRFSKPVITSFYPKNPSALNIVLASTHEGEEELGLKAFLELKKTFKNARLIVVPRHPERFKSVQDLLQNTLKTTPFSWECFSSKGFVECDILLVDSLGELNNFYQIADIVILGGSFVKMGGHNPLEPAFFNARLITGEYIFNQVALFELVKPYKIVPKEDLLDALLDYKNLGMARFLENGHDLNELLAFIKHLEHHHHHH | soluble
6 | MLIYHNCTTDRTMRKMRHEWGTFGIRIADAFSTMNIDVFDKGEKYNGNEKVELTTTVKNYKPKNNTRKWPAVEAKYLGVVYDNHNKLPKNCEGQKVEVQMMKIDKEQYGWVITDILNE | not soluble
7 | MLKAMEHPAYSQLRPVTPSAGVVLCPNPGYSSLEGTNSWVVRAEGDRCSIVIDPGPADEGHLNVLHGKAETVGLVLLTHRHHDHADGAERFRQLTGAAIRAQQAPYCHGGDVLRDGEIIAIDGVTPQLEVVFTPGHTSDSVCFFVWSGVPHESNLEGIITGDTIAGRHTTMISETDGDLGQYLNTLALLEKRGKGIALLPGHGPDGDDVASFAHWYIERRMQRLEQIKEAIAQRGADVPIKELIDAVYDDVDPVLRGAAEQSTRVALRYLAQQQ | not soluble
8 | MLKGIDLTYPQLTYLPETGILYDNTYNEKTVPIISGGGSGHEPAHVGYVGSGMLAAAVTGPLFIPPKSKNILKAIRQVNSGKGVFVIIKNFEADLKEFNEAIKEARTEGIDVRYIVSHDDISVNAYNFHKRHRGVAGTILLHKILGAFAKEGGSIDEIEQLALSLSPEIYTLGVALAPVHFPHQKTSFVLAEDEVSFGIGIHGEPGYRVEKFEGSERIAIELVNKLKAEINWQKKANKNYILLVNGLGSTTLMELYSFQYDVMRLLELEGLSVKFCKVGNLMTSCDMSGISLTLCSVKDPKWLDYLNVPTGAFAWLEHHHHHH | not soluble
9 | MLKGQRTWVFANKPAIIATAAVGGPFEANGRLAEDFDLLHEDLWLGEESYEKAHRVLMEEAAFQAMEKAGLEKEKVQFLIAGDLINQMTPTSFAARTLGMPYLGVFGACSTSMEGLALSAFITNYGGADYILTGASSHNAAVEKQFRYPTEYGGQKPPTAQWTVTGAGVAIVSPKGDGPRVTAATIGRVVDMGLADPFNMGGAMAPAAVDTIEAHLRDMQIDASYYDLIVTGDLGRIGRQVSLDLLRQHGIDIDEECYQDCGLLIYRDGQPVLSGASGAACSAVVVYGHLIKRMRRGELKRILAVATGALLSPLSFQQNETIPCIAHAVAIEYGGEA | not soluble
10 | MLKIADKTFQSRLFTGTGKFSNRHVMAEALAASGSELVTMALKRIDLAQRDDDILAPLLSMQMNLLPNTSGAKNAADAVYAAELAREALATNWLKLEIHPDPKYLMPDPIETLLAAEQLVKQGFIVLPYCHADPVLCKRLEEVGCAAVMPLGSPIGSNQGLASKTFLEIIIDQAKVPVIVDAGIGSPSDAAQAMELGADAVLVNTAIAAAHDPIAMAKAFKLAVEAGRMAYESGLPSRVKMATASSPLTGFLDFVS | not soluble
11 | MLKIGVITMALLSFLNAGWLGNLFDNTPTPYYTMPIDLSKTGNVAETDIRIDKEYRTGIALNYDFRRQKNKMTRNEYNNIKVFFGNSYTSGTAIPVKLKIEKIMDKNETTILNDIIIVDNNGGHELHSSLIKEIALSQGKYRIKVETTEDFSELSDLSVLVEIYYIRAPK | not soluble
12 | MLKINVKYQLKNTLIRINIDDTEPKIYAVRGPSGIGKTTVLNMIAGLRKADEAIIEVNGQLLTDTAKNVNVKIQQRRIGYLFQDYQLFPNMTVYKNITFMAEPSEHIDQLIQTLNIDHLMKQYPMTLSGGEAQRVALARALSTKPDLILLDEPFSSLDDTTKDESITLVKRIFNEWQIPIIFVTHSNYEAEQMAHEIITIG | not soluble
13 | MLKSGRLNFLKLNINSRLLYSTNPQLTKKVIGIDLGTTNSAVAYIRDSNDKKSATIIENDEGQRTTPSIVAFDVKSSPQNKDQMKTLVGMAAKRQNAINSENTFFATKRLIGRAFNDKEVQRDMAVMPYKIVKCESNGQAYLSTSNGLIQSPSQIASILLKYLKQTSEEYLGEKVNLAVITVPAYFNDSQRQATKDAGKLAGLNVLRVINEPTAAALSFGIDDKRNNGLIAVYDLGGGTFDISILDIEDGVFEVRATNGDTHLGGEDFDNVIVNYIIDTFIHENPEITREEITKNRETMQRLKDVSERAKIDLSHVKKTFIELPFVYKSKHLRVPMTEEELDNMTLSLINRTIPPVKQALKDADIEPEDIDEVILVGGMTRMPKIRSVVKDLFGKSPNSSVNPDETVALGAAIQGGILSGEIKNVLLLDVTPLTLGIETFGGAFSPLIPRNTTVPVKKTEIFSTGVDGQAGVDIKVFQGERGLVRNNKLIGDLKLTGITPLPKGIPQIYVTFDIDADGIINVSAAEKSSGKQQSITVIPNSGLSEEEIAKLIEEANANRAQDNLIRQRLELISKADIMISDTENLFKRYEKLISSEKEYSNIVEDIKALRQAIKNFKANENDMSIDVNGIKKATDALQGRALKLFQSATKNQQNQGK | not soluble
14 | MLKVSDLLTLEELPGITLVAGHKNQDQPILKVNILENPDILDWLTAGELLLTTGYIFKDDRKLQKNFLKELAKHHCAALGFKTQRYFEEVPPDLIKLADEMNVPILAIPYNYTFSQIADVLKSRVTLEQFDMNAQETALHNKIYQILETGSSSFHLLQDLAETIQNPVLLLNDHFEGVNFFDLPKNPIRISSILEDRQETSEFQKQLLEQSHPLLRFYQEPIHLQLKLQNQVVPIEIYPIKKKNVILYYLLVWNTLAPLRPVDVAHFKITAHYLLLQLQLEYSRKFEEYQQRNELFFKLFAHEKRDQAVFQQFQQYYRLAIDKPYAILLISLTLNERQRQERMSILGNQLNQVILGDKQKIVCIEIDSSFVLLVENPPEKEGDYLKMMQRLAQSSINQLMKVQEDVELFLTIGPKIQGLTQIHESYQQAIDVLAFQRQFVAEKPEMRIASYSNFHFRQTLQRYFLEEGQATLRKKYLQPLQKSDQQQHTDFVHTLNVYFQSKRNLSQTAKKLFIHRNTLLQRLEKIEQLVLLDFDKEVDLLALEVALFVGT | not soluble
15 | MLLFSAFLIFGFSIGFSEEASCRHPHERFIGTRCYAFVSKKHTYNTAKEYCDSHGYSLATVDNAITSNFLASSAATEFGSNNGQFWIGLSRKKDYELFNWDDGTIVSYTNFEAGFPNKQDFVAENVRNGRWQTLAEHKELEFVCSYDPTATTSAAPTTIPPTTTTTRAPTTTTVRKTTQTTATTMTTPKPTTTVSTTTTTTVPPTTTPKACPQGFVLFEPTQKCYIVLVYGNDSDYPDVPDDAPFLTRENQRCAKYGATVATIHSSDLNDLFRSLIYERFNDTRYATIGLRNIDMKTISGKWQWFDGTSPDYLNFGNMFPKTGDYIAQTSSQGFWVSYTHTAPNEGVVCSKNRKSERGFTGLVDIDQAAIKKLELQTYLK | not soluble
16 | MLLQNILPFAHCLLRKALPEGGNALDGTAGNGHDTLFLAQTAGIRGKVWAFDIQPQALNNTRCRLQEAGYSNVRLILDGHENLKQYIPKPLDAAIFNFGWLPGGDKSLTTRTETSIAALSATLSLLKENGMLIAVLYPGHENGKQEAEAIEQWAKNLPQEQFAVLRYGFTNRKNSPPYLLVFEKLRQKLEHHHHHH | soluble
17 | MLLVSDIQTIQPSLNSVNEGGQKIKNEAEPEFASRLETELKELNTQWDHMCQQLEHHHHHH | not soluble
18 | MLMPEMDRRRMMMMAGFGALAAALPAPTAWADPSRPAAPAGPTPAPAAPAAATGGLLFHDEFDGPAGSVPDPSKWQVSNHRTPIKNPVGFDRPQFFGQYRDSRQNVFLDGNSNLVLRATREGNRYFGGLVHGLWRGGIGTTWEARIKFNCLAPGMWPAWWLSNDDPGRSGEIDLIEWYGNGTWPSGTTVHANPDGTAFETCPIGVDGGWHNWRVTWNPSGMYFWLDYADGIEPYFSVPATGIEDLNEPIREWPFNDPGYKVFPVLNLAVGGSGGGDPATGSYPQEMLVDWVRVF | not soluble
19 | MLMRQVLEEACLKSGFEVNSHRLQTQSRKPIDSSLPFRLTGLANNATLEMTQKEAVSENTIIELAIQTASGARHQKKVGVNQMLLDALKSFTSEFKEDLATTIDGSVPCIVYMNKRYTGAELAVNSLSSLGVASGKCLIRHMRVKLSDQELATMQAKLQEENERKKALDVNFVKLKAENAERDRLERLRQEAFDKDKESREKREQEQLRALIPEPASNIQDSTVMDTTESQQRDVLQEVPEQNPNSWSFDGPAFSRQVPQNTMRMEELNRLLERVDHSLATPAVESRMDAMVNALADGGRISLAEVRTRADVAMEQEQEEDPVEVFANPCDRQAVIYKKRARVQTTDEPMETEEFFEVGIEDVRNMQKDLRKAVRDQTQASFISKEYLAKKNRQLKLEAYKHTVIRISIGEHILQVYFNTAEQSSNLDLFLNNVLTRSGWKLMFTNLKVVTNELKNFVDIELAPKSTLIASFGGQTVNAADVVHNVIEVTPEKADAMSADWLSLNKTFMPFNSTVNDDRKQKRPQFQSSSSSSHSGPPAKSAMPKWLQTGKK | not soluble
20 | MLMSLAQCPGFLFAHREECTVEIKKIINPRYTESGAVDCDVFFDDRDQAVPYTATADDVAPTGQQIWQELQSGKWGEIAPFTVTPEMLEAAREARRQEIEAWRTEQEAKPFTFEWNGRTWNADASSVARLSPVVMLAKSVAAQTHMVWSDADNQQVKLSMPELEELAAAMVQAQVDRNDEIYRRQREMKEELSSLDDLASIRAFDVK | not soluble
